Source: patent publication US7635583B2, “Protein crystal comprising the processivity clamp factor of DNA polymerase and a ligand, and its uses” (Centre National de la Recherche Scientifique, priority 2003, dated 2009)

Experiments:
[1] = biological target: β clamp-Pol IV DNA polymerase interaction (Escherichia coli, UniProt P0A988); conditions: Pol IV 1.5 nM; for effect on β-dependent Pol IV activity: peptide 1, 10, 25 μM
Protocol: (§1) FIG. 3A represents the migration pattern of an electrophoresis gel. β free (lanes 1-4 and 9-12) or β loaded (lanes 5-8 and 13-16) labelled primer/template hybrids are incubated with increasing amounts of control peptide (CLIP) (lanes 1-8) or P16 peptide (lanes 9-16). Concentrations of peptides are as follows: 0 μM, lanes 1, 5, 9 and 13; 1 μM, lanes 2, 6, 10 and 14; 10 μM, lanes 3, 7, 11 and 15; 25 μM, lanes 4, 8, 12 and 16. This mixture is then submitted to the enzymatic activity of Pol IV (1.5 nM) in the presence of each four dNTPs for 1 minute at room temperature. Beside the overall increase in DNA synthesis activity, the β-dependent activity of the polymerase is characterised by the apparition of synthesis products longer than 12 nucleotides (β dependent synthesis), β independent synthesis is characterised by products shorter than 12 nucleotides. […] FIG. 3B represents the quantitative analysis of the relative amounts of each β-independent (incorporation of 1 up to 12 nucleotides) and β-dependent (12 and more nucleotides incorporation) activities observed in lanes 5-8 and 13-16. Black and white rectangles represent the ratio of β-dependent to β-independent polymerase activities (vertical axis) in the presence of specified amounts of CLIP and P16 peptides (horizontal axis), respectively. Decrease in this ratio value actually indicates a specific inhibition of the β-dependent polymerase activity.
(§2) Briefly, P16 peptide and a control peptide (CLIP) were diluted in 20 mM NaHCO3 at concentrations of 250, 100 and 10 pmol/μl. 5′ end radiolabelling, purification and annealing of synthetic primers were performed as previously described (Wagner et al., 1999).
All replication experiments (10 μl final volume) were carried out in buffer E (40 mM HEPES pH 7.5, 80 mM potassium glutamate, 160 μg/ml BSA, 16% glycerol, 0.016% NP40, 8 mM DTT). The 30/90 nucleotide hybrid was first incubated with single strand binding proteins (SSB; Sigma; 90 nM final concentration) in the presence of ATP (200 μM) and MgCl2 (7.5 mM) at 37° C. for 10 min. […]

Pol IV DNA polymerase = biological target: T1, Pol IV DNA polymerase (Escherichia coli, UniProt Q47155); assay: intrinsic (β-independent) activity of Pol IV, primer extension on β free primer/template; format: biochemical; conditions: peptide 1, 10, 25 μM, Pol IV 1.5 nM
T1 sequence (Q47155 1-351): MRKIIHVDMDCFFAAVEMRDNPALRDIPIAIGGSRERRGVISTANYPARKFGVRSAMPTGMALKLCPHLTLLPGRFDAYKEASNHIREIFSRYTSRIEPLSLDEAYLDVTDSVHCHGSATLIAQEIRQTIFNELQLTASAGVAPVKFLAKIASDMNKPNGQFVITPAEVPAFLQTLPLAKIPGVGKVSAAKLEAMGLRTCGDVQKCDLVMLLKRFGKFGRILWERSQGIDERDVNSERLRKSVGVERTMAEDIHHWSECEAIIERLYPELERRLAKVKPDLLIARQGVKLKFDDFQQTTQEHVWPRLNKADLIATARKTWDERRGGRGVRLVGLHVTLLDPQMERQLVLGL
Protocol: as §1, with “Decrease in this ratio value actually indicates a specific inhibition of the β-dependent polymerase activity.” left out

[2] = biological target: β clamp-α subunit of DNA Polymerase III interaction (Escherichia coli, UniProt P0A988); conditions: peptide 1, 10, 25 μM; α subunit 6 nM
Protocol: as §2
All replication experiments (10 μl final volume) were carried out in buffer E (40 mM HEPES pH 7.5, 80 mM potassium glutamate, 160 μg/ml BSA, 16% glycerol, 0.016% NP40, 8 mM DTT). The 30/90 nucleotide hybrid was first incubated with single strand binding proteins (SSB; Sigma; 90 nM final concentration) in the presence of ATP (200 μM) and MgCl2 (7.5 mM) at 37° C. for 10 min. When specified, the γ complex (1 nM final concentration) (gift from Dr. C. S. McHenry, Denver, USA), and the β clamp (5 nM as dimer final concentration) were added at that stage, and incubation was carried out at 37° C. for 10 min. Then, 7 μl of the mixture was added to 1 μl of either 20 mM NaHCO3 or 1 μl of peptide solution (1, 10 or 25 μM final concentration), incubated 20 min. at room temperature and farther 2 hours at 4° C.

β clamp-Pol IV DNA polymerase interaction, sequence (P0A988 whole entry): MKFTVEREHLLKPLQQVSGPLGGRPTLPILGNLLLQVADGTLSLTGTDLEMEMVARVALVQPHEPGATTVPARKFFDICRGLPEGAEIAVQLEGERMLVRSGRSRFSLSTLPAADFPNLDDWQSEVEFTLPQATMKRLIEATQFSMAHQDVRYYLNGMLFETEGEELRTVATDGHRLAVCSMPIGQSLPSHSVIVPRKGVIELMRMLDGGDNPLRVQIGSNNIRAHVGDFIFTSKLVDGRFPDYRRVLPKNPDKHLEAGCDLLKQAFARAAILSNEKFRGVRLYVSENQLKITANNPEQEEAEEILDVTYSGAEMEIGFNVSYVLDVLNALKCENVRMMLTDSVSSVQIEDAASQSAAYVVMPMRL
β clamp-α subunit of DNA Polymerase III interaction, sequence (P0A988 whole entry): as above

RPVKVTPNGAEDESAEAFPLEF (Control peptide) [CLIP, 22-mer control peptide, reference compound]
effect on β-dependent Pol IV activity [1]: no effect
effect on intrinsic activity of Pol IV (distributive incorporation of one to up to 12 nucleotides) (Pol IV DNA polymerase): neither P16 nor CLIP peptides do affect

VTLLDPQMERQLVLGL (listed as Escherichia coli) [P16]
decrease of β-dependent Pol IV activity (factor) ([1]; highest P16 concentration tested, 25 μM, β clamp 5 nM): around 30
effect on β-dependent Pol IV activity [1]: inhibits the β-dependent activity of Pol IV
effect on intrinsic activity of Pol IV (distributive incorporation of one to up to 12 nucleotides) (Pol IV DNA polymerase): neither P16 nor CLIP peptides do affect
effect on α subunit β-dependent activity [2]: dose dependent inhibition
